Reference: the DeepSol protein solubility set

Assay: soluble on expression in E. coli; label from the status in PepcDB or PDB records

| Sequence | soluble on expression in E. coli |
| --- | --- |
| METTQKDELSSFLSVLPPVDFCCVYGSTLHPNNQDKSKMVDYILGVSDPIKWHSANLKMNSDHYASWMVHLGGARLITNVADKVGVGVHFNPFVNWNDRKLKYGVVRMHDLVQDILDWKRFYLSGRLQKPVHMLVDNLDIEDVNSVNKRAAISAALLLLPSKFTEEDLYAKICSLSYMGDLRMFFAEDTNKVNKIVKGQFDLFQSMYKPFLEECETKNLLRFSSAEASHTKLVQDSSLSATRSLVSSLPASVRSQMGKSLGEKKFVSETGRVMGEVCISSREEAAKCMEKVMRRRVMVSSGRQAVSGFLAAGAINATMYLSQKMRKAWNSRA | soluble |
| MMIIVGVDAGGTKTKAVAYDCEGNFIGEGSSGPGNYHNVGLTRAIENIKEAVKIAAKGEADVVGMGVAGLDSKFDWENFTPLASLIAPKVIIQHDGVIALFAETLGEPGVVVIAGTGSVVEGYNGKEFLRVGGRGWLLSDDGSAYWVGRKALRKVLKMMDGLENKTILYNKVLKTINVKDLDELVMWSYTSSCQIDLVASIAKAVDEAANEGDTVAMDILKQGAELLASQAVYLARKIGTNKVYLKGGMFRSNIYHKFFTLYLEKEGIISDLGKRSPEIGAVILAYKEVGCDIKKLISD | soluble |
| MSAQAKPRSEMTAEELAAKEDEEFNVGPLSILTNSVKNNHQVLINCRNNKKLLGRVKAFDRHCNMVLENVKEMWTEVPKTGKGKKKAKSVAKDRFISKMFLRGDSVILVVKNPLAQAE | not soluble |
| MERNKLARQIIDTCLEMTRLGLNQGTAGNVSVRYQDGMLITPTGIPYEKLTESHIVFIDGNGKHEEGKLPSSEWRFHMAAYQSRPDANAVVHNHAVHCTAVSILNRSIPAIHYMIAAAGGNSIPCAPYATFGTRELSEHVALALKNRKATLLQHHGLIACEVNLEKALWLAHEVEVLAQLYLTTLAITDPVPVLSDEEIAVVLEKFKTYGLAIEE | soluble |
| MNRDDAPPIPDALSHRQLNRWLETAMQESSTPAKESNDILSAELERWANHTRFLLQRMAHKGDAIGSDRSPQQVMALGSFRTHLMLGLQALKASQPGR | not soluble |
| MDYDRYKLFVGGIAKETSEEALKQYFSRYGAVLEAVVAKEKVTGKPRGFGFVRFANDCDVVKALRDTHFILGKPVDVRKAIRKHELYQQPFSMQFLERKVQQMNGGLREMSSNGVTSRTKKIFVGGLSSNTTEEEFKSYFERFGRTTDVVVMHDGVTNRPRGFGFVTYDSEDSVEVVMQSNFHELSDKRVEVKRAIPKEGIQSNNGNAVNIPPSYSSFQATPYVPEQNGYGMVLQFPPPVFGYHHNVQAVQYPYGYQFTAQVANVSWNNPIMQPTGFYCAPPHPTPPPTNNLGYIQYMNGFDLSGTNISGYNPLAWPVTGDAAGALIHQFVDLKLDVHSQAHQRMNGGNMGIPLQNGTYI | soluble |
| MSMKGKETMSNEKIVVGKFGATYGIRGWLKVFSYTDNAESIFDYSPWYINQKGKWVEYKVESWKRHNKGMVAKLEGMDVREDAHLMTNFEIAIDPAVLPELSEDEFYWRELFGMHVVTTKGYDLGVVTDMLETGSNDVLVVKANLKDAFGQKERLIPFLEEQVIIKVDREAQRIEVDWDPGFLEHHHHHH | soluble |
| MGSSHHHHHHSSGLVPRGSHMTVEQTPENPGTAARAAAEETVNDILQGAWKARAIHVAVELGVPELLQEGPRTATALAEATGAHEQTLRRLLRLLATVGVFDDLGHDDLFAQNALSAVLLPDPASPVATDARFQAAPWHWRAWEQLTHSVRTGEASFDVANGTSFWQLTHEDPKARELFNRAMGSVSLTEAGQVAAAYDFSGAATAVDIGGGRGSLMAAVLDAFPGLRGTLLERPPVAEEARELLTGRGLADRCEILPGDFFETIPDGADVYLIKHVLHDWDDDDVVRILRRIATAMKPDSRLLVIDNLIDERPAASTLFVDLLLLVLVGGAERSESEFAALLEKSGLRVERSLPCGAGPVRIVEIRRA | soluble |
| MNEFSILCRVLGSLFYRQPQDPLLVPLFTLIREGKLAANWPLEQDDMLARLQKSCDITQISTDYNALFVGEECAVAPYRSAWVEGAEESEVRAFLTSRGMPLADTPADHIGTLLLAASWLEDQSAEDESEALETLFADYLLPWCNTFLGKVEAHAVTPFWRTLAPLTRDAIGAMWDELQEEDEE | not soluble |
| KEPSHNSFTFNESLSFTGFSKLDNNTNFNASIVSDDNRAGAMVFGQARYRNHWDANNDGYSELGKIDARSLGAHSYLRLSDYSKLTGEFHTISEFRRGGDRIDLPPHVVGVAEQTDHSVFSGNLKYDLFSSNYKHHFQAYTSGQIVNRKSYYGGIGEIDVNGHPGGTEGYPIPQDQYGNNYGVTKGKTYMGGIQYSYDLDKFLLMPSQLLFGAEYTRDELNDVMPILSWQTGEDANGNTIPLYPELDQNINNYSLFGQNEWKNDRWSILVGARLDKHSEVKDMILSPRTTLRFNVNPDINLRATYAKGFRAPQVFDEDLHVGVVGGEAQKVFNDPNLKPEISHAFSLSADMYHRFGNVQTNFLVEGFYTRLLDVFTNEEQPDQHDGIKRYTRINGSGAKVFGLNLEGKVAYKSFQLQAGLTLASNKYDEAQEWGLNTVKDTNGAFVTEANANGQQEYKNESMTDTQITRTPSVYGYFTLAYNPAHSWNIALTGAYTGQMYVPHAIEYGVKSAELDIMQNNPEITDETGKAPRIDELKKTPAFFDLGLKVGYDFHVFQATEVQLYVGMNNIFNSFQKDFDRGAARDSGYIYGPTQPRTGYMGLVVKF | not soluble |
| MLAPKAFLDALSGHASRLFNGETPVPRSEFETQFKALLQSGFSKLDLVSREEFDSQMAVLARTRARLEALEAKMAELEGKVGGAEKAGSE | not soluble |
| MAHHHHHHMLILKNVEHTILLKIVKRSFSRNVNNNKFVIKPSSLRIRSDKNNFNDIINKYFPNRILKKRKQQDDYSKMNDKNEEKDKKYYLSSKIERRLKMEKVNDQSNISFYNVIPRDKNKNNYLLDSYNNINNDDSTNISDNTNISDNTNISDNTNISDNTNISDNINISDNINISDDINICDKLNICDNTNINLFGYDMTSHQVRVEEKENNLTRNNKKNVLEITKEEHDIQKYKNKLHKKIWILLKRKSNEKEFEHYYNMLEKYPLKDEVSYSILLHGKLLISKRKKDNAENYYDIIKECFKILNEMKVKKIHPTLVRFNEKLVLSYYELIKLNVHPSYKQWMKILRTVWFVSALVKARRQKFILRKMKKIKNKNSVSLDNFNGTFNIHNLESLYVENRDPLIANNVQQGI | soluble |
| MRTPIALSLALCLSLFPSFASAEEAAPEGEGANKPVYVDLTPALVGNYGSGPRLQYYKADIALQVADKDAATKVEHHEPLIRNQLIMLFAQQTDQSLGTVEAKESLRQEALKQVQQTLEQEEGKPLVTDLLFNNLIVQP | not soluble |
| MSLAGFVVTDVTVATCSILNPFSSCKSSAPWWTQVEKDLYLRTGWTSAAYIRFQRKKEEELLPADKVVIDLKISRLAPEVQDDPKEDKADWEQRPGGIWLKRTAKRHASDSHSAITSVDVLFGADAVDPRPGWEVKDTPILLDSRTESLEARITVRRGDPLKIKKPVPRINENGRFKIMQLADLHLSTGLGHCRDPVPPELIPGQGCEADPRTLDFIERLLDEEQPDLVILSGDQVNGETSRDAQSPLFKSVKLLVDRKIPYAAIFGNHDDEGNLDRHQSMAILEDLPYSLSSAGPEDIDGVGNYIVEVLGRGNTDHSALTLYLLDSHSYSPDERQFRGYDWIKPNQIRWFKTTAQGLKAKHQQYAYMHMNMAFIHIPLPEFAQRGNYFRGNWSEPSTAPGFNSGFKDALEEEGILFVGCGHDHANDYCALSKNEAQKPSLWMCYGGGAGFGGYGGYGGFIRRVRFFDFDMNPGRVVTYKRLEYGNTDARIDEMMIVDGGMVKGPDEGHHHHHH | soluble |
| MSLSAFFAHLHLHSEFSLQDGLIRVKPLMQAVAQAGMPAVALTDQGNLFGAVKFYRAAVNAGVKPIIGAEIRVADADASERPARLVLLCADTQGYRTLTRLLTRGYLEGQQQGVPVVDREWLRGRCAGLIGLSGGRVGDVGRALLSGEPALAARKLEFWREQFGDRYYLELQRTGRPGDEEHVQAAVELATAHGVAVVATNDVCFLRPEDEGHHHHHH | not soluble |
